The results in this text go back to patent US20240043563A1.

Test [1] concerns the target Fc-hMASP-2A-CCS (human) [IgG part: P01857]. The test can be described thus: ELISA according to Example 5, plate coated with Fc-hMASP-2A-CCS.
Test [2] concerns the target MASP-2-CCS-Flag (human) (UniProt O00187). Nature of the test: SPR, Biacore T200, antibody captured on Protein A chip, MASP-2-CCS-Flag as analyte.
The target in test [3] is Fc-hMASP-2A-CCS (human) [IgG part: P01857]. The test can be described thus: ELISA, plate coated with 1 ug/mL Fc-hMASP-2A-CCS.
Sequence of Fc-hMASP-2A-CCS (human) [IgG part: P01857] (P01857 other isoform, or with tags, fused parts or gaps limits assumed, form in doubt): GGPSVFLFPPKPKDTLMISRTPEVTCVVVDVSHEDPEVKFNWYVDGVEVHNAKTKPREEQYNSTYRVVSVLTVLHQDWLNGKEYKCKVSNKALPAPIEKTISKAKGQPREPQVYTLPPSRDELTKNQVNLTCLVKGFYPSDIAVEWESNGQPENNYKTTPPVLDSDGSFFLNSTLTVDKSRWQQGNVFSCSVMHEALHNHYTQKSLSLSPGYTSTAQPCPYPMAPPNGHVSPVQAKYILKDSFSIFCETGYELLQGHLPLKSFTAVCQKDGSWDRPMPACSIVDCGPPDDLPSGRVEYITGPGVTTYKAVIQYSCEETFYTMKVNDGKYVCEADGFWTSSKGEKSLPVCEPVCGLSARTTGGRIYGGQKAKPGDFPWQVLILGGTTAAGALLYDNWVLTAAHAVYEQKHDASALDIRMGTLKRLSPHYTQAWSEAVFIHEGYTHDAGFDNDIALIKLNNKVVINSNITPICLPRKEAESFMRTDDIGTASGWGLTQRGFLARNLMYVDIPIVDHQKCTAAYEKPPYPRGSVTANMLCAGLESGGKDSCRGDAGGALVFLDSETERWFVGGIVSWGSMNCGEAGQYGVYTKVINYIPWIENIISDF

Sequence of MASP-2-CCS-Flag (human) (O00187 other isoform, or with tags, fused parts or gaps limits assumed, form in doubt): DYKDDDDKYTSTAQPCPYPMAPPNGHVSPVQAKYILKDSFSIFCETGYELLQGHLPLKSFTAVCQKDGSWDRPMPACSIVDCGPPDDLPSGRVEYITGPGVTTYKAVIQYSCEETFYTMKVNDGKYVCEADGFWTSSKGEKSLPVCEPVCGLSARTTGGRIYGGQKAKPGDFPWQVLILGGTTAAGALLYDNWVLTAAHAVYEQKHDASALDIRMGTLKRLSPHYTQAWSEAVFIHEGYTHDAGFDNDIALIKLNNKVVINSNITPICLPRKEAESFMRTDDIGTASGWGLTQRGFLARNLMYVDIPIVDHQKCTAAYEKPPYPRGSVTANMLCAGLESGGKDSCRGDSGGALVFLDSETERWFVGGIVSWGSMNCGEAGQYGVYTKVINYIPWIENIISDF

B1: humanized anti-human MASP-2 monoclonal antibody 126-Hu (antibody, human IgG4 S228P, kappa, V domains shown)
VH: QVQLVESGGGVVQPGRSLRLSCAASGFTFSSFGMHWVRQAPGKGLEWVAYISSGSSSSFYVDTVKGRFTISRDNSKNTLYLQMNSLRAEDTAVYYCARGDRNFEVWGQGTTVTVSS
VL: DIQMTQSPSSLSASVGDRVTITCRASQSVSSSRYSYMHWFQQKPGKAPKLLIYHASNLESGVPSRFSGSGSGTDFTLTISSLQPEDFATYYCQQSWEVPWTFGQGTKLEIKR
B1 displayed an EC50 in test [1] of 0.246 nM. In test [2], this molecule showed a Kd of 0.148 nM, a fold affinity against the reference antibody Narsoplimab of 60 times, a koff of 6.33e-05 s⁻¹ and a kon of 428000 M⁻¹ s⁻¹.

B2: humanized anti-human MASP-2 monoclonal antibody 136-Hu (antibody, human IgG4 S228P, kappa, V domains shown)
VH: QVQLVQSGAEVKKPGASVKVSCKASGNTFTNYWMHWIRQAPGQGLEWMGYINPNTGYTDFNQKFKDRVTLTADKSTSTAYMELSSLRSEDTAVYYCTLQLGRNFDYWGQGTTVTVSS
VL: DIQMTQSPSSLSASVGDRVTITCRASQSVSSSRSTYIHWYQQKPGKAPKLLIYYSSNLESGVPSRFSGSGSGTDFTLTISSLQPEDFATYYCHQSWEIPYTFGQGTKLEIKR
On to B2, for which the 50% effective concentration (EC50) in test [1] stood at 0.26 nM. In test [2], the Kd was found to be 0.998 nM, the koff came out at 0.000589 s⁻¹ and the on-rate (kon) worked out at 590000 M⁻¹ s⁻¹.

B3: murine anti-human MASP-2 monoclonal antibody 60 (antibody, V domains shown)
VH: QVQLQQSGAELMKPGASVKISCKATGYPFSTYWIEWVKQRPGHGLEWIGEILPGSDNTNYNEKFKGKATFTADTSSNTAYMQLSSLTSEDSAVYYCARRTTATRAWFVYWGQGTLVTVSA
VL: DIVMSQSPSSLAVSVGEKVTMSCKSSQSLLYSSNQKNYLAWYQQKPGQSPKLLIYWASTRESGVPDRFTGSGSGTDFTLTISSVRAEDLAVYYCQHYYTYPWTFGGGTNLEIK
Consider B3, for which the EC50 in test [3] was found to be 0.149 nM.

B4: humanized anti-human MASP-2 monoclonal antibody 100-Hu (antibody, human IgG4 S228P, kappa, V domains shown)
VH: QVQLVESGGGVVQPGGSLRLSCAASGFTFSNFGIHWVRQAPGKGLEWVAYISSGGSAVFYADTVKGRFTISRDNSKNTLYLQMNSLRAEDTAVYYCAKSDRYFDYWGQGTTVTVSS
VL: EIVLTQSPATLSLSPGERATLSCRASQSVSSSSYRYIHWYQQKPGQAPRLLIYYASNLESGIPARFSGSGSGTDFTLTISSLEPEDFAVYYCQHSWETPWTFGQGTKLEIKR
As for B4, the half-maximal effective concentration (EC50) in test [1] was 0.297 nM. In test [2], the Kd stood at 0.701 nM, the off-rate (koff) was 0.000298 s⁻¹ and the kon stood at 428000 M⁻¹ s⁻¹.

B5: murine anti-human MASP-2 monoclonal antibody 100 (antibody, V domains shown)
VH: DVQLVESGGGLVQPGGSRKLSCAASGFTFSNFGIHWVRQAPEKGLEWVAYISSGGSAVFYADTVKGRFTISRDNSKNTLFLQMTSLRSEDTAIYYCAKSDRYFDYWGQGTTLTVSS
VL: DIVLTQSPASLAVSLGQRATISCRASQSVSSSSYRYIHWYQQKPGQPPRLLIKYASNLESGVPARFSGSGSGTDFTLNIHPVEEEDTATYYCQHSWETPWTFGGGTKLEIK
In turn, B5 showed an EC50 in test [3] of 0.173 nM.

B6: murine anti-human MASP-2 monoclonal antibody 120 (antibody, V domains shown)
VH: DVQLQESGPGLVKPSQSLSLTCTVTGYSITSDYAWSWIRQFLRNKLEWMGYISYSGRTSYNPSLKSRISITRDTSKNQFFLQLNSVTTEDTATYFCARLITGGDYWGQGTSVTVSS
VL: DIVMTQSQKFMSTSVGDRVSVTCKASQNVGINVVWYQQKPGQSPKALIYSASYRFSGVPDRFTGSGSGTDFTLTISNVQSEDLAEYLCLQYDINPLTFGAGTKLELK
With B6, in test [3], the EC50 was determined as 0.16 nM. This EC50 and that of the molecule before are within 1.5-fold of each other.

B7: humanized anti-human MASP-2 monoclonal antibody 124-Hu (antibody, human IgG4 S228P, kappa, V domains shown)
VH: QVQLQESGPGLVKPSQTLSLTCTVSGYSITSDYAWNWIRQPPGKGLEWMGYISYSGRTSYNPSLKSRLTISRDTSKNQFSLKLSSVTAADTAVYYCARHYGDFWGQGTTVTVSS
VL: DIQMTQSPSSLSASVGDRVTITCKASQNVDTNVAWYQQKPGKAPKLLIYSASYRYSGVPSRFSGSGSGTDFTLTISSLQPEDFATYYCQQYNSYPSTFGQGTKLEIKR
For the molecule B7, the EC50 in test [1] turned out to be 0.25 nM. Moreover, in test [2], the dissociation constant Kd was found to be 0.35 nM, the fold affinity against the reference antibody Narsoplimab came out at 25 times, the koff amounted to 0.000582 s⁻¹ and the on-rate constant (kon) was 1.66e+06 M⁻¹ s⁻¹.

B8: murine anti-human MASP-2 monoclonal antibody 136 (antibody, V domains shown)
VH: QVQLQQSGAELAKPGASVKMSCKASGNTFTNYWMHWIKQRPGQGLEWVGYINPNTGYTDFNQKFKDKATLTADKSSTTAYMQLISLTSEDSTVYYCTLQLGRNFDYWGQGTTLTVSS
VL: DIVLTQSPASLGVSLGQRATISCRASQSVSSSRSTYIHWYQQKPGQPPKLLIKYSSNLESGVPARFSGGGSGTDFTLNIHPVEAEDTATYYCHQSWEIPYTFGGGTKLEIR
As to B8, in test [3], the EC50 is 0.143 nM.

B9: murine anti-human MASP-2 monoclonal antibody 115 (antibody, V domains shown)
VH: DVQLVESGGGLVQPGGSRKLSCAASGFTFSSFGMHWVRQAPEKGLEWVAYISSGSSSFFYADTVKGRFTISRDNPKNTLFLQMTSLRSEDTAMYYCARGDRNFDVWGAGTTVTVSS
VL: DIVLTQSPASLAVSLGQRATISCRASQSVTSSRYSYMHWFQQKPGQPPNLLIKHASNLESGVPARFSGSGSGTDFTLNIHPVEEDDTATYYCQHSWEVPWTFGGGTKLEIK
B9: in test [3], the 50% effective concentration (EC50) is 0.151 nM.

B10: murine anti-human MASP-2 monoclonal antibody 126 (antibody, V domains shown)
VH: DVQLVESGGGLVQPGGSRKLSCVASGFTFSSFGMHWVRQAPEKGLEWVAYISSGSSSSFYVDTVKGRFTISRDNPKNTLFLQMTSLRSEDTAMYYCARGDRNFEVWGAGTTVTVSS
VL: DIVLTQSPASLAVSLGQRATISCRASQSVSSSRYSYMHWFQQKPGQPPNLLIKHASNLESGVPARFSGSGSGTDFTLNIHPVEEEDTATYYCQQSWEVPWTFGGGTKLEIK
Molecule B10 had an EC50 in test [3] of 0.161 nM.

B11: murine anti-human MASP-2 monoclonal antibody 124 (antibody, V domains shown)
VH: DVQLQESGPGLVKPSQSLSLTCTVTGYSITSDYAWNWIRQFPGNKLEWMGYISYSGRTSYNPSLKSRLSITRDTSKNQFFLQLTSVTTEDTATYYCARHYGDFWGQGTTLTVSS
VL: DIVMTQSQKFMSTSVGDRVSVTCKASQNVDTNVAWFQQKPGQSPKPLIYSASYRYSGVPDRFTGSGSGTDFTLTISNVQSEDLANYFCQQYNSYPSTFGSGTKLEIK
With B11, the concentration for a half-maximal effect (EC50) in test [3] was determined as 0.182 nM.
